2 molecules from paper PMC10926838, “Self-driving laboratories to autonomously navigate the protein fitness landscape” (Nature chemical engineering, 2024) can be followed below.

One data set relates to T1, 6151.
T1 construct: gene P6F0-P1F1-P5F2-P1F3; pET-22b, Ni-NTA purified
The experiment in a line: fluorescence of released 4-methylumbelliferone, Michaelis-Menten fit. Format: biochemical, Streptomyces sp. Particulars: 10 nM enzyme, 0.5% DMSO, 10 mM phosphate pH 7, 50 mM NaCl. The text has this: fluorescence of released 4-methylumbelliferone, Michaelis-Menten fit on 6151 | We also tested the enzymes’ Michaelis–Menten kinetic properties

Substrate in data set [1]: Cc1cc(=O)oc2cc(O[C@@H]3O[C@H](CO)[C@@H](O)[C@H](O)[C@H]3O)ccc12
The data set is described as above. It counts as biochemical, Streptomyces sp. QM-B814. Particulars: 10 nM enzyme, 0.5% DMSO, 10 mM phosphate pH 7, 50 mM NaCl.

`Cc1cc(=O)oc2cc(O[C@@H]3O[C@H](CO)[C@@H](O)[C@H](O)[C@H]3O)ccc12` [4-methylumbelliferyl-β-D-glucopyranoside]: the Km in the data set on 6151 came out at 214 µM.

B1: Bgl3 (Streptomyces sp. QM-B814) (protein)
chain: MVPAAQQTATAPDAALTFPEGFLWGSATASYQIEGAAAEDGRTPSIWDTYARTPGRVRNGDTGDVATDHYHRWREDVALMAELGLGAYRFSLAWPRIQPTGRGPALQKGLDFYRRLADELLAKGIQPVATLYHWDLPQELENAGGWPERATAERFAEYAAIAADALGDRVKTWTTLNEPWCSAFLGYGSGVHAPGRTDPVAALRAAHHLNLGHGLAVQALRDRLPADAQCSVTLNIHHVRPLTDSDADADAVRRIDALANRVFTGPMLQGAYPEDLVKDTAGLTDWSFVRDGDLRLAHQKLDFLGVNYYSPTLVSEADGSGTHNSDGHGRSAHSPWPGADRVAFHQPPGETTAMGWAVDPSGLYELLRRLSSDFPALPLVITENGAAFHDYADPEGNVNDPERIAYVRDHLAAVHRAIKDGSDVRGYFLWSLLDNFEWAHGYSKRFGAVYVDYPTGTRIPKASARWYAEVARTGVLPTA
notes: wild-type; pET-22b, E. coli BL21(DE3), Ni-NTA purified
Take B1: in data set [1], the Michaelis constant (Km) worked out at 76 µM and the turnover number (kcat) came out at 10.7 s⁻¹.
